The values below are quoted from earlier work in paper PMC8714859.

Data set [1] deals with interleukin-34 (Homo sapiens) (UniProt Q6ZMJ4).
Another data set has as its target M-CSF (Homo sapiens) (UniProt P09603).
Chain of UniProt P09603 (P09603 33-190): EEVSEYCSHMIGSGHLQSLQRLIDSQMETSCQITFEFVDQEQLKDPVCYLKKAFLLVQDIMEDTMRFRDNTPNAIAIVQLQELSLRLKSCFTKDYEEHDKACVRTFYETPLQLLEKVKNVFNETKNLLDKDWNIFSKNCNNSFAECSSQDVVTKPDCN

Chain of UniProt Q6ZMJ4 (Q6ZMJ4 21-242): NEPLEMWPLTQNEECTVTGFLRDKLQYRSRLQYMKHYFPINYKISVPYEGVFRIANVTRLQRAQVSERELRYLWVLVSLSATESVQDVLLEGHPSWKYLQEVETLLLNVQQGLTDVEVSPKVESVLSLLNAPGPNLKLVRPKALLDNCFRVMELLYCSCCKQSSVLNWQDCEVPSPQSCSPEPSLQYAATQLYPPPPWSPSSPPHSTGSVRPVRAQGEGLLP

For orientation: Kd means a measure of binding affinity in units of concentration. In the case of M-CSF receptor (from UniProt P07333), the Kd was 0.001 nM in data set [1] and 0.034 nM with M-CSF (Homo sapiens).
